Reference: the supplement of paper PMC10065799, “High-throughput profiling of sequence recognition by tyrosine kinases and SH2 domains using bacterial peptide display” (eLife, 2023)

Key:
AncSZ = assay: phosphorylation enrichment, bacterial display (enrichment ratio); higher = better substrate or ligand; peptides without Tyr show the background
EPHB1 = EPHB1 (UniProt P54762); assay: as above
EPHB2 = EPHB2 (UniProt P29323); assay: as above
FGFR1 = FGFR1 (UniProt P11362); assay: as above
FGFR3 = FGFR3 (UniProt P22607); assay: as above
Sequence of FGFR3 (P22607 whole entry, looked up): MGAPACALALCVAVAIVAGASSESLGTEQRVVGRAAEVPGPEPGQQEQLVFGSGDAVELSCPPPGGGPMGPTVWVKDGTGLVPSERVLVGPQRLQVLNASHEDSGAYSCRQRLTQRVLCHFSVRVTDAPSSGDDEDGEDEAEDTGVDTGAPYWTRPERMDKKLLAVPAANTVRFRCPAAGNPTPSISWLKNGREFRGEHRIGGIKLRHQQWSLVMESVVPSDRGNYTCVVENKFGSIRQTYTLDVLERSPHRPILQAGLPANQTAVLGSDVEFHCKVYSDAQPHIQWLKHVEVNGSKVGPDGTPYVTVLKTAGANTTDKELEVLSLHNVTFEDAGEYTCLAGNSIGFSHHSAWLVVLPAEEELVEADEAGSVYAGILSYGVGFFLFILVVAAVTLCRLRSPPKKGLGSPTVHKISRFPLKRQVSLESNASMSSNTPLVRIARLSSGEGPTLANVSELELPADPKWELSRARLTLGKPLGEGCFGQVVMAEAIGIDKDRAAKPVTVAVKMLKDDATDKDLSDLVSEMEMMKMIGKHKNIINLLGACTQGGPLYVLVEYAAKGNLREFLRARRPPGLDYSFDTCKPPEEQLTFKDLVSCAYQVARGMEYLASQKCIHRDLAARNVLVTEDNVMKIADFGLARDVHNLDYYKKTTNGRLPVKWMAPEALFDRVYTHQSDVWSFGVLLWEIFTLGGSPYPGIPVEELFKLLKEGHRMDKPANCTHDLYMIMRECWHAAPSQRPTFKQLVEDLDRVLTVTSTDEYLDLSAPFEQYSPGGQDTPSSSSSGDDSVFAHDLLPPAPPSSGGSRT

Fer (mouse) = assay: as above
Fes = Fes (UniProt P07332); assay: as above
Fyn = Fyn (UniProt P06241); assay: as above
Sequence of Fyn (P06241 whole entry, looked up): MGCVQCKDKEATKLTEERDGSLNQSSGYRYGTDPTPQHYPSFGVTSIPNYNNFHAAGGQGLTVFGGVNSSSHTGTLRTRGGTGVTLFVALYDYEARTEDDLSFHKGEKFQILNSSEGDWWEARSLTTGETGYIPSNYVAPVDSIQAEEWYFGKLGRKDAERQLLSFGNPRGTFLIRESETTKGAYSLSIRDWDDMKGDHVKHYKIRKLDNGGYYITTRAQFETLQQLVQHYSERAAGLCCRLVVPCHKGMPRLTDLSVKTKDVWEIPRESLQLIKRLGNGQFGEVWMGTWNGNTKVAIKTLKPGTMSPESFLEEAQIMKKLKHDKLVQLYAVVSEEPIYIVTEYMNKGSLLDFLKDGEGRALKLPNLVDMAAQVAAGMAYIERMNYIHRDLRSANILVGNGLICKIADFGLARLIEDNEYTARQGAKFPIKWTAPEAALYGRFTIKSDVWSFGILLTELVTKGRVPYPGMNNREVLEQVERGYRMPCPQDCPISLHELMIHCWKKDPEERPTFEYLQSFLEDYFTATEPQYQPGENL

Hck = Hck (UniProt P08631); assay: as above
Sequence of Hck (P08631 whole entry, looked up): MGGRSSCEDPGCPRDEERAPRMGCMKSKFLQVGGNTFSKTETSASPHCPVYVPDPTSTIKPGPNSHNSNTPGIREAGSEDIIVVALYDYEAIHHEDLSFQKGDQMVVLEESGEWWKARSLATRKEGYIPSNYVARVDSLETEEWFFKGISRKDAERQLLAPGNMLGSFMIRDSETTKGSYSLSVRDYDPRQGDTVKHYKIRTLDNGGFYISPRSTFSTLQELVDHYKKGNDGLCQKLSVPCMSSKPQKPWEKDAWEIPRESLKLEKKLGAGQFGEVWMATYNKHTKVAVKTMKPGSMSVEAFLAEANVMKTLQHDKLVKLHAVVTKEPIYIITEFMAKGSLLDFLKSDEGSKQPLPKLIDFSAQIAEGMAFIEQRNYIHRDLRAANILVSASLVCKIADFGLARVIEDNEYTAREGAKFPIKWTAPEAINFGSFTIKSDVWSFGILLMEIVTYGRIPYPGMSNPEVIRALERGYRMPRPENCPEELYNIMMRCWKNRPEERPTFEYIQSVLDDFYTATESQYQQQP

Jak2 = Jak2 (UniProt O60674); assay: as above
MERTK = MERTK (UniProt Q12866); assay: as above
Sequence of MERTK (Q12866 whole entry, looked up): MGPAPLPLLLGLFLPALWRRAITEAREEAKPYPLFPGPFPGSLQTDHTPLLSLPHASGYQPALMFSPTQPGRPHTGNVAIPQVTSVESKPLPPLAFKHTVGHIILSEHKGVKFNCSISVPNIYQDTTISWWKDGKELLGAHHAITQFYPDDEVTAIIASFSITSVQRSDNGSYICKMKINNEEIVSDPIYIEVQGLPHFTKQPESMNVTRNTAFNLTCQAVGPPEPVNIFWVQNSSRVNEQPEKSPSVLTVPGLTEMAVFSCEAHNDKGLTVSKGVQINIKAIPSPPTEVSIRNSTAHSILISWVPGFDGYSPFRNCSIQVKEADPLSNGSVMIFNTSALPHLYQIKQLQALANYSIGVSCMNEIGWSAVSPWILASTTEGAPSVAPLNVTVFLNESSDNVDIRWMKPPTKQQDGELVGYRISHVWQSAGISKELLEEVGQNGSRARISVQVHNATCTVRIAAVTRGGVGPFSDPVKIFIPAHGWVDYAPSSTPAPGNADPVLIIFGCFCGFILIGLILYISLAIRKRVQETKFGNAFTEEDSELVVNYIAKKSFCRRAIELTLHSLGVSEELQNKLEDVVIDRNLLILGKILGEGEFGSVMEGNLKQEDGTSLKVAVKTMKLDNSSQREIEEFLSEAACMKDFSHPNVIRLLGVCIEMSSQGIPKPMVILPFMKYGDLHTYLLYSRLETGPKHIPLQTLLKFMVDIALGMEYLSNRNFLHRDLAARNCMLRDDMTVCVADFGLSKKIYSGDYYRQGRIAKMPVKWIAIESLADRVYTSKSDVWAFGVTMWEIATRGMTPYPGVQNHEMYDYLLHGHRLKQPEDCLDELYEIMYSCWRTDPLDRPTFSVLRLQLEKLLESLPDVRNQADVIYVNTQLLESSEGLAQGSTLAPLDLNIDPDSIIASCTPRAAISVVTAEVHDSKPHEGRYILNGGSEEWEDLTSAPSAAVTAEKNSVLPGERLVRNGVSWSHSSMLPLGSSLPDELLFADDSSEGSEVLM

c-Abl (mouse) = assay: as above
c-Src = assay: as above
Grb2 SH2 = Grb2 SH2 (UniProt P62993); assay: SH2 binding enrichment of the phosphorylated peptide, bacterial display (enrichment ratio); higher = better substrate or ligand; peptides without Tyr show the background
Sequence of Grb2 SH2 (P62993 whole entry, looked up): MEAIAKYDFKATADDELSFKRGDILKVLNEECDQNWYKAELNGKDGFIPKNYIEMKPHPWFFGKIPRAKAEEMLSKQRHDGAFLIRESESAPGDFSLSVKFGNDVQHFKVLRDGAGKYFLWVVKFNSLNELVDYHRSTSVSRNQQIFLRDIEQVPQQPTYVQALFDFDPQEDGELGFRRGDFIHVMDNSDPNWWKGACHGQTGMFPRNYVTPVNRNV

SHP2-C SH2 = assay: as above
c-Src SH2 = assay: as above
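For SH2 binding enrichment of the phosphorylated peptide, bacterial display in this document: peptide library displayed on the E. coli surface as eCPX fusions, selected cells deep-sequenced, score is each peptide's frequency after selection divided by its frequency in the input.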
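For phosphorylation enrichment, bacterial display in this document: 11-residue human phosphosite peptides and single-mutation variants displayed on the E. coli surface, counted by deep sequencing, each peptide's frequency after selection divided by its frequency in the unselected input library; frequency after pTyr selection over input frequency; kinase dosed for 20-30% of maximal phosphorylation in three min.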

Sequence of FGFR1 (P11362 whole entry, looked up): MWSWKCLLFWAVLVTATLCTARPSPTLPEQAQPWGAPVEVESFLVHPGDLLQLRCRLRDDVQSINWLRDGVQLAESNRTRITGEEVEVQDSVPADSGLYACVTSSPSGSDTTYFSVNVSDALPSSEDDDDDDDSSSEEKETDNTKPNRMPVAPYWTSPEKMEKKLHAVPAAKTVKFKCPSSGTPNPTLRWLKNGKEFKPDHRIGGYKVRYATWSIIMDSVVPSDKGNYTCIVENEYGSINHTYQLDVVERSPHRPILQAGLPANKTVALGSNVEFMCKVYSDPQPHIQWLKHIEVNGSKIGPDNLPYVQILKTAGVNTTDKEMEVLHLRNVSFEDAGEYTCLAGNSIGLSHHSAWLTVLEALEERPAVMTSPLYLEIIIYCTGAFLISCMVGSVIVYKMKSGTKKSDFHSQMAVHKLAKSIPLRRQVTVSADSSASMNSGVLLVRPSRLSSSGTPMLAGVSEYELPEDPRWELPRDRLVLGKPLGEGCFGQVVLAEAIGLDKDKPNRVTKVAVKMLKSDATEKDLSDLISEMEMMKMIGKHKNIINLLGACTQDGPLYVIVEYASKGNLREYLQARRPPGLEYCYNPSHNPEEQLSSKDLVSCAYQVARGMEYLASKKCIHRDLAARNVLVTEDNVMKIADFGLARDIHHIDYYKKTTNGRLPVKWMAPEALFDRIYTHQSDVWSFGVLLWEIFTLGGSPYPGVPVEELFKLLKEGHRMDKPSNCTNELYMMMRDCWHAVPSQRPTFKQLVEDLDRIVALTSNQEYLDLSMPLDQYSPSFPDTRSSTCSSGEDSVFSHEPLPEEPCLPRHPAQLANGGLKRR
Sequence of EPHB1 (P54762 whole entry, looked up): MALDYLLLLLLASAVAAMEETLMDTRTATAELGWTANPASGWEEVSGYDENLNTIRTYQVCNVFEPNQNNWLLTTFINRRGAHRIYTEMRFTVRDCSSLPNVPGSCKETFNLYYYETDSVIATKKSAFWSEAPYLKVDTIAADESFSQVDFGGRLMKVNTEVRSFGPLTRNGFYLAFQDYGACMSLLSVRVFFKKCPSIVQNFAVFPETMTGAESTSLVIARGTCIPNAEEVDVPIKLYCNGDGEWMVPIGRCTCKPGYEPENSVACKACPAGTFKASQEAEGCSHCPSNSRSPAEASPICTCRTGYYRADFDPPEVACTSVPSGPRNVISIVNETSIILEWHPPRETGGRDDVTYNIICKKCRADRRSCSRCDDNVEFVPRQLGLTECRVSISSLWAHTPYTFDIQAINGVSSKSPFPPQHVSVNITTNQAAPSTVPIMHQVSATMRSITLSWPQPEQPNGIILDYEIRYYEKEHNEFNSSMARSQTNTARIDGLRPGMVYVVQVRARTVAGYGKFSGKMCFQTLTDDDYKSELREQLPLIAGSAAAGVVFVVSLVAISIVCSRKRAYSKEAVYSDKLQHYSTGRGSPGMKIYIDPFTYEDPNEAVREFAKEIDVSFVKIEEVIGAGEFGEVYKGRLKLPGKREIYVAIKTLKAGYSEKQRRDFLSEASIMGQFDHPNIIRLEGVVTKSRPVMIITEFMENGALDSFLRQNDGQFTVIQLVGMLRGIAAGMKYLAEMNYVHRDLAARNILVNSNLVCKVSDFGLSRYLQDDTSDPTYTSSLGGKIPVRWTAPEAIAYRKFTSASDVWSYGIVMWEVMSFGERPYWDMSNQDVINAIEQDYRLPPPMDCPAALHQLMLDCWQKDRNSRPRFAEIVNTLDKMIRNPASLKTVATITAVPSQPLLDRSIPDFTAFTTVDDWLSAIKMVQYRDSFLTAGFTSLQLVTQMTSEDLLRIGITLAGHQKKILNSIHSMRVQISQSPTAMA

Sequence | phosphorylation enrichment (AncSZ) | phosphorylation enrichment (EPHB1) | phosphorylation enrichment (EPHB2) | phosphorylation enrichment (FGFR1) | phosphorylation enrichment (FGFR3) | phosphorylation enrichment (Fer (mouse)) | phosphorylation enrichment (Fes) | phosphorylation enrichment (Fyn) | phosphorylation enrichment (Hck) | phosphorylation enrichment (Jak2) | phosphorylation enrichment (MERTK) | phosphorylation enrichment (c-Abl (mouse)) | phosphorylation enrichment (c-Src) | SH2 binding enrichment (Grb2 SH2) | SH2 binding enrichment (SHP2-C SH2) | SH2 binding enrichment (c-Src SH2)
AARVSYRLASG [DCHS1_Y1582] | 0.554 | 0.352 | 0.49 | 0.354 | 0.392 | 0.51 | 0.588 | 0.315 | 0.378 | 0.428 | 0.422 | 0.423 | 0.382 | 0.842 | 0.759 | 0.409
ADARMYGVLPR [PLP1_Y207_W212R] | 0.598 | 0.378 | 0.477 | 0.467 | 0.44 | 0.385 | 0.467 | 0.536 | 3.23 | 0.398 | 0.405 | 0.481 | 0.727 | 0.661 | 0.629 | 0.557
ADDSYYTARSA [ZAP70_Y493] | 0.932 | 0.484 | 0.603 | 0.773 | 0.754 | 0.518 | 0.706 | 0.623 | 1.12 | 0.597 | 0.634 | 0.542 | 0.7 | 0.861 | 0.448 | 0.401
ADEEFYEIIAA [FEStide_F_2014] | 2.54 | 0.886 | 0.77 | 1.5 | 1.4 | 7.22 | 1.57 | 2.42 | 3.26 | 1.09 | 2.19 | 0.853 | 3.36 | 0.917 | 0.605 | 0.729
ADGLEYSRTEL [MMUT_Y287_G291E] | 1.03 | 0.483 | 0.572 | 0.552 | 0.637 | 0.56 | 0.873 | 0.527 | 0.547 | 0.747 | 0.437 | 0.621 | 0.461 | 0.717 | 0.596 | 0.447
ADGLEYSRTGL [MMUT_Y287] | 0.99 | 0.555 | 1.6 | 0.602 | 0.559 | 0.514 | 0.978 | 0.544 | 0.776 | 0.855 | 0.592 | 0.878 | 0.641 | 0.758 | 0.606 | 0.373
ADMETYLLEKS [MYH7_Y266_I263M] | 0.949 | 0.612 | 0.581 | 0.573 | 0.582 | 0.454 | 1.11 | 0.573 | 0.549 | 0.983 | 0.447 | 0.864 | 0.869 | 0.67 | 0.564 | 0.523
ADRNHYRRFRR [YBX1_Y145_P149R_YF] | 0.564 | 0.462 | 0.447 | 0.509 | 0.721 | 0.435 | 0.561 | 0.57 | 0.544 | 0.579 | 0.672 | 0.507 | 0.548 | 0.669 | 0.659 | 0.428
AEEKEYHAEEG [EGFR_Y869_G873E] | 1.29 | 0.649 | 0.815 | 0.605 | 0.747 | 0.494 | 1.15 | 0.633 | 0.573 | 1.01 | 0.445 | 0.84 | 0.451 | 0.994 | 0.746 | 0.552
AEQEEYSAMRD [NRAS_Y64_G60E] | 1.4 | 0.541 | 0.566 | 0.525 | 0.737 | 0.469 | 1.26 | 0.458 | 0.571 | 1.14 | 0.478 | 0.802 | 0.536 | 1.01 | 0.785 | 0.456
AGADGYDFLAP [FOXL2_Y186_G187D_YF] | 0.984 | 0.554 | 0.645 | 0.543 | 0.744 | 0.598 | 1.17 | 0.452 | 0.79 | 1.03 | 0.708 | 0.785 | 0.555 | 0.883 | 0.661 | 5.67
AHPIIYDIIEA [PYKtide_D_2014] | 1.41 | 12.7 | 10.7 | 0.699 | 0.794 | 11.9 | 2.13 | 7.74 | 8.25 | 0.949 | 9.44 | 5.89 | 6.44 | 0.819 | 0.483 | 1.25
AKAEICEMRPL [COX10_Y97_Y97C] | 0.709 | 0.469 | 0.516 | 0.593 | 0.477 | 0.602 | 0.921 | 0.389 | 0.608 | 0.716 | 0.437 | 0.738 | 0.533 | 1.01 | 0.798 | 0.679
AKAFIYASHIV [ZNF573_Y229_G224A] | 0.962 | 0.7 | 0.771 | 0.561 | 0.965 | 1.57 | 1.08 | 1 | 0.842 | 0.908 | 0.501 | 1.44 | 1.53 | 0.82 | 0.724 | 0.637
AKFPSYEKNKK [FOXL2_Y91_F90S] | 0.624 | 0.577 | 0.396 | 0.618 | 0.475 | 0.49 | 0.7 | 0.423 | 0.44 | 1.07 | 0.499 | 0.544 | 0.562 | 0.907 | 0.894 | 0.615
AKIDGYIISYR | 1.15 | 0.678 | 0.657 | 0.607 | 0.684 | 0.566 | 1.39 | 0.37 | 0.604 | 0.966 | 0.46 | 0.755 | 0.568 | 0.961 | 1.03 | 0.685
AKLVQYFMEHH [PTPN11_Y80_E76K_YF] | 0.729 | 0.462 | 0.505 | 0.496 | 0.684 | 0.445 | 0.853 | 0.374 | 0.441 | 0.63 | 0.362 | 0.546 | 0.412 | 1.31 | 1.62 | 0.97

Sequence | phosphorylation enrichment (AncSZ) | phosphorylation enrichment (EPHB1) | phosphorylation enrichment (EPHB2) | phosphorylation enrichment (FGFR1) | phosphorylation enrichment (FGFR3) | phosphorylation enrichment (Fer (mouse)) | phosphorylation enrichment (Fes) | phosphorylation enrichment (Fyn) | phosphorylation enrichment (Hck) | phosphorylation enrichment (Jak2) | phosphorylation enrichment (MERTK) | phosphorylation enrichment (c-Abl (mouse)) | phosphorylation enrichment (c-Src) | SH2 binding enrichment (Grb2 SH2) | SH2 binding enrichment (SHP2-C SH2) | SH2 binding enrichment (c-Src SH2)
ALARKYHGGGG [HBB_Y146_H144R] | 0.372 | 0.418 | 0.307 | 0.353 | 0.33 | 0.444 | 0.408 | 0.365 | 0.317 | 0.507 | 0.337 | 0.407 | 0.435 | 0.8 | 0.549 | 0.536
ALECLYHREKR [TEKT5_Y195] | 1.26 | 0.618 | 0.675 | 0.484 | 0.734 | 0.451 | 1.15 | 0.512 | 0.583 | 0.884 | 0.406 | 0.927 | 0.571 | 1 | 0.48 | 0.446
ALEHKYWALGQ [MAP1A_Y1555_Q1553H] | 0.859 | 0.546 | 0.539 | 0.601 | 0.582 | 0.492 | 0.966 | 0.801 | 0.621 | 0.709 | 0.596 | 0.652 | 1.39 | 0.817 | 0.814 | 14.8
ALHRPYGCDVE [ABL2_Y80] | 0.871 | 0.59 | 0.456 | 0.412 | 0.531 | 0.538 | 0.782 | 0.447 | 0.379 | 0.541 | 0.357 | 0.571 | 0.324 | 1.01 | 0.72 | 0.582
ALIKAYDKAVA [SMN1_Y43] | 0.563 | 0.546 | 0.626 | 0.444 | 0.526 | 0.282 | 0.578 | 0.458 | 0.29 | 0.532 | 0.491 | 0.461 | 0.353 | 0.773 | 0.573 | 0.571
ALLTKYSRSSM [DSCC1_Y374_H376R] | 0.617 | 0.505 | 0.535 | 0.579 | 0.554 | 0.442 | 0.744 | 0.465 | 0.384 | 0.816 | 0.552 | 0.697 | 0.524 | 0.847 | 0.615 | 0.589
ALMGLYHGQVL [HADHA_Y343] | 0.605 | 0.545 | 0.649 | 0.625 | 0.641 | 0.678 | 0.823 | 0.728 | 1.64 | 0.596 | 0.648 | 0.679 | 1.28 | 1.15 | 0.89 | 0.647
ALVFLSFCIIF [SIGLEC12_Y494_Y494S] | 1.05 | 0.329 | 0.489 | 0.45 | 0.603 | 0.39 | 0.865 | 0.496 | 0.466 | 0.871 | 0.449 | 0.974 | 0.439 | 1.85 | 1.39 | 0.793
APRKVYDTRDD [ZFPL1_Y215] | 0.641 | 0.45 | 0.44 | 0.427 | 0.581 | 0.403 | 0.736 | 0.408 | 0.493 | 0.614 | 0.372 | 0.485 | 0.422 | 0.84 | 0.648 | 0.372
APTSGYREFVH [IL4R_Y575_Q576R] | 0.681 | 0.378 | 0.342 | 0.462 | 0.474 | 0.485 | 0.561 | 0.422 | 0.379 | 0.441 | 0.483 | 0.508 | 0.397 | 0.882 | 0.561 | 0.518
AQESNYRLLRQ [SLC20A2_Y377_R382Q] | 0.616 | 0.785 | 0.534 | 0.411 | 0.445 | 0.479 | 0.737 | 0.391 | 0.478 | 0.754 | 0.488 | 0.634 | 0.397 | 0.891 | 1.54 | 0.405
ARAFIYAIIPA [ACKtide_2014] | 1.4 | 5.28 | 2.22 | 1.07 | 1.1 | 0.81 | 1.46 | 2.65 | 4.01 | 1.86 | 6.87 | 2.27 | 3.54 | 1.03 | 0.777 | 0.764
ARGMEYLASKK [FGFR1_Y613] | 0.61 | 0.356 | 0.367 | 0.285 | 0.409 | 0.324 | 0.566 | 0.364 | 0.367 | 0.662 | 0.354 | 0.506 | 0.403 | 0.529 | 0.513 | 0.456
ARIVDYNIIGW [MYH7_Y588_G584R] | 0.808 | 0.542 | 0.662 | 0.81 | 0.839 | 0.406 | 0.846 | 0.545 | 0.56 | 0.671 | 0.454 | 0.561 | 0.445 | 0.735 | 0.607 | 0.874
ASNFNYFFHRE [KCNA1_Y413_V408A_YF] | 1.03 | 0.511 | 0.556 | 0.506 | 0.748 | 0.415 | 1.01 | 0.372 | 0.654 | 0.805 | 0.453 | 0.571 | 0.43 | 1.31 | 1.03 | 0.6
TDIVAYSGRVQ [SPTBN2_Y477] | 0.857 | 0.369 | 2.04 | 0.214 | 1.05 | 0.264 | 0.196 | 1.05 | 0.407 | 1.48 | 0.885 | 1.13 | 1.05 |  |  | 
